These results are taken from paper PMC549407.

The experiment addresses HIV-1 integrase (IN), recombinant, from the San Francisco isolate SF2 (HIV-1 (San Francisco isolate SF2)). Put plainly: cross-linking.

By stoichiometry N is commonly meant the number of molecules, sites or subunits per partner or assembly. “HIV-1 integrase (IN), recombinant, from the San Francisco isolate SF2 (enzyme)”: the stoichiometry N is 2.
